Patent US20210052649A1 (FRED HUTCHINSON CANCER RESEARCH CENTER, published 2021)

Biological target: T1, ROR1-protein (human, UniProt Q01973 30-403, limits assumed)
T1 construct: also called orphan tyrosine kinase receptor ROR1
Assay: assay not described; monovalent binding affinity for ROR1 compared with mAb 2A2

T1 sequence (Q01973 30-403 limits assumed): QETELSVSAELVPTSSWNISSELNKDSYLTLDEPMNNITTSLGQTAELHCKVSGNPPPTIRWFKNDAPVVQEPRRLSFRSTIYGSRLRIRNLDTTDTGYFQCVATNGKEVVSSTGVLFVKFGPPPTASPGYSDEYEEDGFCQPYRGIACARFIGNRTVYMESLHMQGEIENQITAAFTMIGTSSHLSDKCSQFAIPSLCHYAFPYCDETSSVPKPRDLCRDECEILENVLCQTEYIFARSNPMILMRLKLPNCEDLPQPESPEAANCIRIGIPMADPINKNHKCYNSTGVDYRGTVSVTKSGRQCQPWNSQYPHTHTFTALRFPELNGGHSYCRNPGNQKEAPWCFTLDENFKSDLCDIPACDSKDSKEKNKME

B1: anti-ROR1 monoclonal antibody R12 (antibody, V domains shown)
VH: QEQLVESGGRLVTPGGSLTLSCKASGFDFSAYYMSWVRQAPGKGLEWIATIYPSSGKTYYATWVNGRFTISSDNAQNTVDLQMNSLTAADRATYFCARDSYADDGALFNIWGPGTLVTISS
VL: ELVLTQSPSVSAALGSPAKITCTLSSAHKTDTIDWYQQLQGEAPRYLMQVQSDGSYTKRPGVPDRFSGSSSGADRYLIIPSVQADDEADYYCGADYIGGYVFGGGTQLTVTG
notes: also called mAb R12; R12 mAb
fold higher monovalent binding affinity than 2A2: > 50 fold
